Reference: patent US20060134087A1, “ITI-D1 Kunitz domain mutants as hNE inhibitors” (Dyax Corp., priority 1988, published 2006)
Where two headings read alike, the source gives them in different places. Ends that are not written are not given here.

Key:
[1] = molecular target: plasmin (Homo sapiens, UniProt P00747); settings: literature; cited from earlier work
[2] = test system: chymotrypsin; settings: literature; cited from earlier work
[3] = test system: trypsin; settings: literature; cited from earlier work
[4] = molecular target: T1, agarose-immobilized hNE beads (Homo sapiens, UniProt P08246); experiment: pH fractionation of display phage on agarose-immobilized hNE beads; assay type: binding; settings: range of the affinity class
T1 sequence (P08246 30-267): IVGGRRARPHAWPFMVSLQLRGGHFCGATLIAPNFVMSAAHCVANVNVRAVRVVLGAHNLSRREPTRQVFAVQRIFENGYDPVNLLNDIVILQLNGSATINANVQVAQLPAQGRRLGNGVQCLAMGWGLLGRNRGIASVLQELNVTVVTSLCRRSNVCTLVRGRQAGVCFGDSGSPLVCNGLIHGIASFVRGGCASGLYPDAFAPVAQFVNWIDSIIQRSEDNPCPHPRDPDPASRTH
Text: For the purpose of simultaneously assessing the affinity of a large number of different BPTI and ITI-D1 muteins, DNA sequences encoding the BPTI or ITI-D1 was incorporated into the genome of the bacteriophage M13. […] Alterations in the KuDom amino acid sequence were introduced. Each pure population of phage displaying a particular KuDom was characterized with regard to its interactions with immobilized hNE or hCG. Based on comparison to the pH elution profiles of phage displaying other KuDoms of known affinities for the particular protease, mutant KuDoms having high affinity for the target proteases were identified. Subsequently, the sequences of these mutant KuDoms were determined (typically by sequencing the corresponding DNA sequence).
To test if phage displaying the ITI-D1::III fusion protein interact strongly with the proteases human neutrophil elastase (hNE), aliquots of display phage were incubated with agarose-immobilized hNE beads (“hNE beads”). The beads were washed and bound phage eluted by pH fractionation as described in U.S. Pat. No. 5,223,409. The pHs used in the step gradient were 7.0, 6.0, 5.5, 5.0, 4.5, 4.0, 3.5, 3.0, 2.5, and 2.0. Following elution and neutralization, the various input, wash, and pH elution fractions were titered. Phage displaying ITI-D1 were compared to phage that display EpiNE-7.
To test if ITI-D1E7-display phage bind hNE beads, pH elution profiles were measured. Aliquots of EpiNE-7, MA-ITI-D1, and MA-ITI-D1E7 display phage were incubated with hNE beads for three hours at room temperature (RT). The beads were washed and phage were eluted as described in U.S. Pat. No. 5,223,409, except that only three pH elutions were performed. […] The pH elution profile of EpiNE-7 display phage is as described. MA-ITI-D1E7 phage show a broad elution maximum around pH 5. The total fraction of MA-ITI-D1E7 phage obtained on pH elution from hNE beads was about 40-fold less than that obtained using EpiNE-7 display phage.
We characterized the binding properties to hNE-beads of MA-BITI and MA-BITI-E7 display phage using the extended pH fractionation procedure described in U.S. Pat. No. 5,223,409.
The binding capacity of hNE-beads for display phage varies among preparations of beads and with age for each individual preparation of beads. Thus, it is difficult to directly compare absolute yields of phage from elutions performed at different times. For example, the fraction of MA-EpiNE7 display phage recovered from hNE-beads varies two-fold among the experiments shown in Tables 14, 16, and 17. However, the shapes of the pH elution profiles are similar. It is possible to correct somewhat for variations in binding capacity of hNE-beads by normalizing display phage yields to the total yield of MA-EpiNE7 phage recovered from the beads in a concurrent elution. When the data shown in Tables 14, 16, and 17 are so normalized, the recoveries of display phage, relative to recovered MA-EpiNE7, are shown in Table 3.
ITI-D1 derivative BITI-E7-1222 is BITI-E7 with the alteration A11T. ITI-D1 derivative BITI-E7-141 is BITI-E7 with the alterations E31Q and Q34V; phage that display the presence of these proteins are MA-BITI-E7-1222 and MA-BITI-E7-141. We determined the binding properties to hNE-beads of MA-BITI-E7-1222 and MA-BITI-E7-141 display phage using the extended pH fractionation protocol described previously. The results are in Tables 18 (for MA-BITI-E7 and MA-BITI-E7-1222) and 19 (for MA-EpiNE7 and MA-BITI-E7-141). The pH elution profiles for the MA-BITI-E7 and MA-BITI-E7-1222 phage are almost identical.
Total pfu applied to the beads are in column two. The fractions of this input pfu recovered in each pH fraction of the abbreviated pH elution protocol (pH 7.0, pH 3.5, and pH 2.0) are in the next three columns. […]

[5] = molecular target: T2, human neutrophil elastase (hNE) (Homo sapiens, UniProt P08246); settings: ALBR83a,b, ODOM90, cited from earlier work
T2 sequence (P08246 30-267): T1 sequence (P08246 30-267)

Chain of plasmin (P00747 581-810 limits assumed, species assumed): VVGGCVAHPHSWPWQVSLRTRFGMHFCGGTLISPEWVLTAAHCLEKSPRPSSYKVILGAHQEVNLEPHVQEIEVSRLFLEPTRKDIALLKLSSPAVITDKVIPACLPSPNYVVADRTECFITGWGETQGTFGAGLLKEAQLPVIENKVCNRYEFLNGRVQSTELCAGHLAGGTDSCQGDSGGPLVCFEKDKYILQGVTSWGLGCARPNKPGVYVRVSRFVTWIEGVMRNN
Chain of plasmin (P00747 97-580 partner limits assumed, species assumed): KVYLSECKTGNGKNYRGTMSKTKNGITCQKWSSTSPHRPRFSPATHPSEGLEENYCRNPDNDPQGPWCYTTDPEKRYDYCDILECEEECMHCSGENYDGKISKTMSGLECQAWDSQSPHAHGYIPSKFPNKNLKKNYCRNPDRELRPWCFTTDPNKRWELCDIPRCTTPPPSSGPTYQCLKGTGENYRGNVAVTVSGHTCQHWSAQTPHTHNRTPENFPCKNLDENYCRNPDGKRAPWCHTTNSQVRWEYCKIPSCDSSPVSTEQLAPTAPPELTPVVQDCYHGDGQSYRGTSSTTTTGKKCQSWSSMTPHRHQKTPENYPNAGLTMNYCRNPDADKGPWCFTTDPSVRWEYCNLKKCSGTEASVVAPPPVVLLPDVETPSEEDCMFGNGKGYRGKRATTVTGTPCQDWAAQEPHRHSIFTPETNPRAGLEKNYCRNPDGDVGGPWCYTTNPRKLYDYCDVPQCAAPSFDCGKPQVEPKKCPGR

ITI-D1: first Kunitz domain of human inter-α-trypsin inhibitor light chain, SEQ ID NO 016 (KEDSCQLGYSAGPCMGMTSRYFYNGTSMACETFQYGGCMGNGNNFVTEKDCLQTCRTV; disulfide (positions not given here); also: disulfides drawn as lines in table, pairing not given here)
affinity for plasmin [1]: lacks affinity
affinity for chymotrypsin [2]: lacks affinity
affinity for / inhibition of trypsin [3]: lacks affinity
Fraction of Input bound [4]: <0.005%
pH Elution Maximum [4]: >6.0 pH
Ki ([5]; read-out: Ki for leukocyte elastase, lower limit): > 0.001 µM
Ki ([5]; read-out: Ki for leukocyte elastase, upper limit): < 1 µM
